This is an account of results in patent US20200181247A1.

In the assay the target is commercially-prepared stable A-beta42 Oligomers (SynAging SAS) (human). In words: SPR; antibody covalently immobilized, stable A-beta42 oligomers (1 microM) injected. For orientation: Surface plasmon resonance follows binding to a sensor surface in real time, without labels.
Sequence of commercially-prepared stable A-beta42 Oligomers (SynAging SAS) (human) (peptide, as listed by the source): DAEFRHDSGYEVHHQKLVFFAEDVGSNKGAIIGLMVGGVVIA

negative control IgG1 (antibody) showed a binding response units (BRUs), mean of 2.5 BRU.
